Measurements from EP1192182B1, “PITUITARY ADENYLATE CYCLASE ACTIVATING PEPTIDE (PACAP) RECEPTOR 3 (R3) AGONISTS AND THEIR PHARMACOLOGICAL METHODS OF USE” (priority 1999, dated 2001).
No end group written: not given here.

T1: PACAP-R3 (human, UniProt P41587 24-438)
T1 sequence (looked up): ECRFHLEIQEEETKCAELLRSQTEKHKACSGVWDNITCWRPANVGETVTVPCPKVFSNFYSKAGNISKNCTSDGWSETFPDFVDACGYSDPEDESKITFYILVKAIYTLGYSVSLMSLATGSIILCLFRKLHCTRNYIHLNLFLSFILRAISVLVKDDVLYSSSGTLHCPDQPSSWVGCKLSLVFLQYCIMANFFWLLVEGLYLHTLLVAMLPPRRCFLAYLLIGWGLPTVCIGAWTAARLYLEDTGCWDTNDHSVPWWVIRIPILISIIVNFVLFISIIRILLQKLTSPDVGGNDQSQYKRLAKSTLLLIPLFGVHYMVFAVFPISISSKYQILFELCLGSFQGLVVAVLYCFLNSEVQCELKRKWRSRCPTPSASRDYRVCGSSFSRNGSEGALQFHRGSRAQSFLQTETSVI


Biological target: T1, PACAP-R3
Assay: cell-based or functional assay

| R3 Selectivity [ratio] | R3 EC50 [nM] | Binder |
| --- | --- | --- |
| 1.5 | – | HSDAVFTDNYTRLRKQMAVKKYLNSIKK-NH2 [R3P8] |
| 7 | – | HSDAVFTDNYTRLRKQLAVKKYLNSILN [R3P46] |
| 230 | – | HSDAVFTDNYTRLRKQVAAKKYLNSIKKKR [R3P78] |
| 90 | – | HSDAVFTDNYTRLRKQMAAKKYLNSIKK [R3P51] |
| 23 | – | HSDAVFTDNYTRLRKQVAVKKYLQSIKNKRY [R3P82] |
| 3 | – | HSDAVFTDNYTRLRKQVAVKKYLQSILKKRY [R3P87] |
| 6 | – | HSDAVFTDNYTRLRKQMAAKKYLNSILK [R3P50] |
| 6 | – | HSDAVFTDNYTRLRKQMAAKKYLNSILN [R3P47] |
| 1.4 | – | HSDGIFTDSYSRYRKQMAVKKYLAAVKQGGT-NH2 [R3P16] |
| 2 | – | HSDGIFTDSYSRYRKQMAVKKYLAAVKKYLAAVRHG-NH2 [R3P17] |
| 30 | – | HSDAVFTDNYTRLRKQVAAKKYLQSILKK [R3P85] |
| 12 | – | HSDAVFTDNYTRLRKQVAVKKYLQSILKKR [R3P88] |
| 100 | 0.02 | HSDAVFTDNYTRLRKQVAAKKYLQSILNKR [R3P92] |
| > 250 | – | HSDAVFTDNYTRLRKQMAAKKYLNSIKKKRY [R3P52] |
| 170 | – | HSDAVFTDNYTRLRKQMAAHKYLNSIKNKRY [R3P73] |
| 100 | – | HSDAVFTDNYTRLRKQMAVKKYLNSIKKKRY [R3P56] |
| 660 | – | HSDAVFTDQYTRLRKQMAAKKYLNSIKNKRY [R3P71] |
| > 250 | – | HSDAVFTDNYTRLRKQMAAKKYLNTIKNKRY [R3P70] |
| 280 | – | HSDAVFTDNYTRLRKQMAAKKYLNSIKNKRY [R3P55] |
| 190 | – | HSDAVFTDNYTRLRKQMAAKKYLQSIKNKRY [R3P69] |

| R3 Selectivity [ratio] | R3 EC50 [nM] | Binder |
| --- | --- | --- |
| 250 | – | HSDAVFTDNYTRLRKQVAAKKYLQSIKNKRY [R3P66] |
| 70 | – | HSDAVFTDNYTRLRKQMAVKKYLNSIKNKRY [R3P59] |
| 150 | – | HSDAVFTDNYTRLRKQMAAKHYLNSIKNKRY [R3P74] |
| 330 | – | HSDAVFTDNYTRLRKQLAAKKYLNTIKNKRY [R3P67] |
| 60 | – | HSDAVFTDNYTRLRKQVAAKKYLQSILKKRY [R3P83] |
| 100 | – | HSDAVFTDNYTRLRKQVAVKKYLQSIKKK [R3P81] |
| 2 | – | HSDGIFTDSYSRYRKQLAVKKYLAAVKK [R3P39] |
| 30 | – | HSDAVFTDNYTRLRKQMAAKKYLNSIKN [R3P49] |
| 500 | – | HSDAVFTDNYTRLRKQVAAKKYLQSIKKKR [R3P77] |
| 100 | 0.09 | HSDAVFTDNYTRLRKQMACKKYLNSIKNKR [R3P94] |
| 100 | – | HSDAVFTDNYTRLRKQVAAKKYLNSIKK [R3P62] |
| > 200 | – | HSDAVFTDNYTRLRKQMAAKKYLNSIKKK [R3P54] |
| 130 | – | HSDAVFTDNYTRLRKQMAAKKYLNSIKNKR [R3P65] |
| 2500 | – | HSDAVFTDNYTRLRKQMAAKKYLNSIKKKR [R3P53] |
| > 300 | – | Ac-HSDAVFTENYTKLRKQLAAKKYLNDLKKGGT (ends and bridges not checked) [R3P2] |
| 15 | – | HSDAVFTDNYTRLRKQVAVKKYLQSILKK [R3P89] |
| 23 | – | HSDAVFTDNYTRLRKQLAAKKYLNDILKGGT [R3P23] |
| 8 | – | HSDAVFTDNYTRLRKQLAAKKYLNDILNGGT [R3P27] |
| 1 | – | HSDAVFTDNYTRLRKQLAVKKYLNDILKGGT [R3P28] |
| 170 | – | HSDAVFTDNYTRLRKQMAVKKYLNSIKKK [R3P58] |

| R3 Selectivity [ratio] | R3 EC50 [nM] | Binder |
| --- | --- | --- |
| 120 | – | HSDAVFTDNYTRLRKQVAAKKYLQSIKK [R3P60] |
| 40 | 0.14 | HSDAVFTDNYTRLRKQVAAKKYLQSILNK [R3P93] |
| 7 | – | HSDGIFTDSYSRYRKQLAAKKYLADVKK [R3P38] |
| 3 | – | HSDGIFTESYSRYRKQMAVKKYLAALKKKRYKQRVKNK [R3P6] |
| 40 | – | HSDAVFTDNYTRLRKQVAAKKYLQSILKKR [R3P84] |
| 190 | – | HSDAVFTDNYTRLRKQMAVKKYLNSIKKKR [R3P57] |
| 8 | – | HSDAVFTDNYTRLRKQMAVKKYLNDILN [R3P48] |
| 110 | – | HSDAVFTDNYTRLRKQVAAKKYLQSIKNK [R3P86] |
| 20 | – | HSDAVFTDNYTRLRKQMAVKKYLNSIKKGGT [R3P9] |
| 30 | – | HSDAVFTENYTKLRKQLAAKKYLNDLKK [R3P5] |
| 0.5 | – | HSDAVFTENYTRLRKQMAVKKYLNSLKK-NH2 [R3P7] |
| 18 | – | HSDGIFTDSYSRYRKQLAAKKYLADVKKGGT [R3P37] |
| > 600 | – | HSDAVFTDQYTRLRKQLAAKKYLNTIKNKRY [R3P72] |
| > 500 | – | HSDAVFTDQYTRLRKQLAAHKYLNTIKNKRY [R3P75] |
| 2 | – | HSDGIFTDSYSRYRKQMAVKKYLAAVKK [R3P40] |
| 130 | – | HSDAVFTENYTKLRKQLAAKKYLNDLKKGGT [R3P3] |
| 0.3 | – | HSDAVFTENYTKLRKQLAAKKYLNDLLNGGT [R3P10] |
| 140 | – | HSDAVFTDNYTRLRKQIAAKKYLQTIKK [R3P61] |
